The target in one assay is T1, Aβ42 oligomers (soluble) (UniProt P05067 672-713).
T1 construct: amyloid‐β 1-42 (Aβ42), cut product of the amyloid precursor protein APP; Oligomeric assembly; also called Aβ oligomers; oligomeric Aβ; source: oligomers prepared as described (Stine et al, 2003)
Kind of assay: BLI; optimized assay: Protein A sensors loaded to near-saturation with soluble TREM‐Fc‐V5 proteins in PBS; ligand in serial dilution (five concentrations); dissociation in PBS; 1:1 interaction model. To be noted: both partners purified. For orientation: BLI is a label-free optical method that tracks binding on a fibre tip over time.

Assay [1] deals with T2, Aβ42 fibrils (fibrillar Aβ42) (UniProt P05067 672-713).
T2 construct: amyloid‐β 1-42 (Aβ42), cut product of the amyloid precursor protein APP; Fibrillar assembly of the peptide; also called fAβ; Aβ fibrils; source: Pinotsi et al, 2016
Description: pull-down; Aβ42 fibril pull-down: conditioned media with 5 mM EDTA incubated with Aβ42 fibrils 1 h at room temperature, fibrils pelleted at 18,000 g, washed with PBS; Western blot with V5 antibody. To be noted: one partner purified. On the technique in general: Immunoblotting shows a protein as a band on a membrane.

A further assay has as its target T3, Aβ42 monomers (UniProt P05067 672-713).
T3 construct: amyloid‐β 1-42 (Aβ42), cut product of the amyloid precursor protein APP; also called monomeric Aβ; source: monomers prepared as described (Stine et al, 2003)
Kind of assay: ELISA; plates coated overnight at 4°C with purified soluble TREM‐Fc proteins in 100 mM NaCO3 pH 11, blocked (Block Ace), incubated with Aβ42 monomers, oligomers or fibrils 1 h at room temperature; Aβ detected with 4G8‐HRP, OD450. The following applies: both partners purified.

The values below come from publication PMC6220267, “High‐affinity interactions and signal transduction between Aβ oligomers and TREM2” (EMBO Molecular Medicine, 2018).

B1: soluble mouse Treml1‐Fc (soluble ectodomain) (Fc fusion, UniProt Q8K558 21-175, looked up)
chain: DSHPEVLQAPVGSSILVQCHYRLQDVRALKVWCQFLQEGCHPLVTSAVDRRAPGNGRIFLTDLGGGLLQVEMVTLQEEDTGEYGCVVEGAAGPQTLHRVSLLVLPPVPGPREGEEAEDEKETYRIGTGSLLEDPSLDPSASAGPHEFRRRENSIP
notes: Treml1, mouse, soluble ectodomain; also called sTreml1‐Fc; source: HEK293T, transfected, purified from conditioned media (anti-human IgG Fc agarose beads)
Take B1: in the assay with Aβ42 oligomers (soluble), the binding result is given as “binds”.

B2: soluble mouse Trem2‐Fc (soluble ectodomain) (Fc fusion, UniProt Q99NH8 19-171, looked up)
chain: LNTTVLQGMAGQSLRVSCTYDALKHWGRRKAWCRQLGEEGPCQRVVSTHGVWLLAFLKKRNGSTVIADDTLAGTVTITLKNLQAGDAGLYQCQSLRGREAEVLQKVLVEVLEDPLDDQDAGDLWVPEESSSFEGAQVEHSTSRNQETSFPPTS
notes: Trem2, mouse, soluble ectodomain; also called sTrem2‐Fc; sTrem2‐FC; source: HEK293T, transiently transfected; conditioned media; purified from conditioned media (anti-human IgG Fc agarose beads)
For B2, the binding result (in assay [1]; in the assay with Aβ42 oligomers (soluble); with Aβ42 monomers) was “binds” throughout.

B3: soluble TREML1‐Fc (human, soluble ectodomain) (Fc fusion, UniProt Q86YW5 16-162, looked up)
chain: QGIVGSLPEVLQAPVGSSILVQCHYRLQDVKAQKVWCRFLPEGCQPLVSSAVDRRAPAGRRTFLTDLGGGLLQVEMVTLQEEDAGEYGCMVDGARGPQILHRVSLNILPPEEEEETHKIGSLAENAFSDPAGSANPLEPSQDEKSIP
notes: TREML1, human, soluble ectodomain; also called sTREML1‐Fc; source: HEK293T, transiently transfected; conditioned media; purified from conditioned media (anti-human IgG Fc agarose beads)
On to B3, for which, in the assay with Aβ42 oligomers (soluble), the binding result is “binds”.
